Source: the supplement of paper PMC7877785
± gives the uncertainty stated by the source.

Test: self-splicing fitness, log relative to wild type (ln ratio); higher = more splicing; Tetrahymena group I intron in knt gene, E. coli kanamycin selection, DiMSum; sequences stand for … in CUCUCU…GGAGGGAAAAGUUAUCAGGCAUGCACCUGGUAGCUAGUCUUUAAACCAAUAGAUUGCAUCGGUUUAAAAGGCAAGACCGUCAAAUUGCGGGAAAGGGGUCAACAGCCGUUCAGUACCAAGUCUCAGGGGAAACUUUGAGAUGGCCUUGCAAAGGGUAUGGUAAUAAGCUGACGGACAUGGUCCUAACCACGCAGCCAAGUCCUAAGUCAACAGAUCUUCUGUUGAUAUGGAUGCAGUUCACAGACUAAAUGUCGGUCGGGGAAGAUGUAUUCUUCUCAUAAGAUAUAGUCGGACCUCUCCUUAAUGGGAGCUAGCGGAUGAAGUGAUGCAACACUGGAGCCGCUGGGAACUAAUUUGUAUGCGAAAGUAUAUUGAUUAGUUUUGGAGUACUCGUGGUCG
Outline: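 Colonies from six replicate transformations of E. coli BL21(DE3) were pooled and amplicon-sequenced on an Illumina HiSeq 2500. The library placed an intron with all eight P1ex-region nucleotides randomised inside the knt kanamycin-resistance gene on pET-22b(+), and cells grew overnight at 37°C or 30°C on LB agar with or without 25 μg/mL kanamycin (plus 100 μg/mL carbenicillin, 50 μM IPTG, 0.2% rhamnose). Fitness is the DiMSum error-weighted combination of wild-type-normalised replicate fold changes, kanamycin versus none.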

Sequence: ACUCAGCAAUAUUACGUACU
- self-splicing fitness (ln) (30 °C): -0.824 ± 0.056
- self-splicing fitness (ln) (37 °C): -0.927 ± 0.063

Sequence: GGGGAGCAAUAUUACGCAAU
- self-splicing fitness (ln) (37 °C): -1.66 ± 0.48

Sequence: AAUAAGCAAUAUUACGCGCU
- self-splicing fitness (ln) (30 °C): -0.554 ± 0.17
- self-splicing fitness (ln) (37 °C): -0.562 ± 0.18

Sequence: CGGUAGCAAUAUUACGUCGU
- self-splicing fitness (ln) (30 °C): -3.85 ± 0.22
- self-splicing fitness (ln) (37 °C): -2.02 ± 0.24

Sequence: UCGCAGCAAUAUUACGGAGG
- self-splicing fitness (ln) (30 °C): -3.71 ± 0.18
- self-splicing fitness (ln) (37 °C): -2.05 ± 0.15

Sequence: AGUCAGCAAUAUUACGGCCC
- self-splicing fitness (ln) (30 °C): -0.436 ± 0.12
- self-splicing fitness (ln) (37 °C): -0.0813 ± 0.18

Sequence: UCGGAGCAAUAUUACGCGCG
- self-splicing fitness (ln) (30 °C): -2.02 ± 0.18
- self-splicing fitness (ln) (37 °C): -0.752 ± 0.2

Sequence: CCCGAGCAAUAUUACGGUCG
- self-splicing fitness (ln) (30 °C): -3.56 ± 0.24
- self-splicing fitness (ln) (37 °C): -2.58 ± 0.2

Sequence: CCUAAGCAAUAUUACGUUAC
- self-splicing fitness (ln) (30 °C): -4.69 ± 0.36
- self-splicing fitness (ln) (37 °C): -3.03 ± 0.32

Sequence: UGCAAGCAAUAUUACGUAGC
- self-splicing fitness (ln) (30 °C): -3.54 ± 0.37
- self-splicing fitness (ln) (37 °C): -2.48 ± 0.41

Sequence: ACGAAGCAAUAUUACGGAAU
- self-splicing fitness (ln) (30 °C): -3.14 ± 0.12
- self-splicing fitness (ln) (37 °C): -1.34 ± 0.1

Sequence: AGUGAGCAAUAUUACGCGAA
- self-splicing fitness (ln) (30 °C): -2.36 ± 0.32
- self-splicing fitness (ln) (37 °C): -1.56 ± 0.29

Sequence: UAGGAGCAAUAUUACGGAAC
- self-splicing fitness (ln) (37 °C): -0.574 ± 0.4

Sequence: AGGCAGCAAUAUUACGGUUG
- self-splicing fitness (ln) (30 °C): -3.28 ± 0.18
- self-splicing fitness (ln) (37 °C): -1.46 ± 0.17

Sequence: UGCAAGCAAUAUUACGCGUA
- self-splicing fitness (ln) (30 °C): -1.45 ± 0.18
- self-splicing fitness (ln) (37 °C): -1.57 ± 0.17

Sequence: ACCUAGCAAUAUUACGGAAC
- self-splicing fitness (ln) (30 °C): -3.04 ± 0.24

Sequence: ACCUAGCAAUAUUACGUAGA
- self-splicing fitness (ln) (30 °C): -2.73 ± 0.16
- self-splicing fitness (ln) (37 °C): -2.49 ± 0.21

Sequence: UCCUAGCAAUAUUACGGUUC
- self-splicing fitness (ln) (30 °C): -3.05 ± 0.2
- self-splicing fitness (ln) (37 °C): -1.55 ± 0.17

Sequence: GCUUAGCAAUAUUACGAGUU
- self-splicing fitness (ln) (30 °C): -1.62 ± 0.091
- self-splicing fitness (ln) (37 °C): -0.362 ± 0.11

Sequence: ACUGAGCAAUAUUACGUUAU
- self-splicing fitness (ln) (30 °C): -3.12 ± 0.15
- self-splicing fitness (ln) (37 °C): -2.89 ± 0.2

Sequence: UAUGAGCAAUAUUACGGCAA
- self-splicing fitness (ln) (30 °C): -2.46 ± 0.38
- self-splicing fitness (ln) (37 °C): -2.15 ± 0.3

Sequence: AUAAAGCAAUAUUACGGAUG
- self-splicing fitness (ln) (30 °C): -1.69 ± 0.072
- self-splicing fitness (ln) (37 °C): -0.844 ± 0.11

Sequence: UCGAAGCAAUAUUACGCACA
- self-splicing fitness (ln) (30 °C): -1.23 ± 0.13
- self-splicing fitness (ln) (37 °C): -0.472 ± 0.16

Sequence: CCCUAGCAAUAUUACGCGGC
- self-splicing fitness (ln) (30 °C): -1.47 ± 0.21
- self-splicing fitness (ln) (37 °C): -2.36 ± 0.41

Sequence: CGGCAGCAAUAUUACGCCGA
- self-splicing fitness (ln) (30 °C): -2.87 ± 0.29
- self-splicing fitness (ln) (37 °C): -2.76 ± 0.34

Sequence: ACGAAGCAAUAUUACGCAGA
- self-splicing fitness (ln) (30 °C): -1.42 ± 0.12
- self-splicing fitness (ln) (37 °C): -1.1 ± 0.14

Sequence: GGGAAGCAAUAUUACGCGGU
- self-splicing fitness (ln) (30 °C): -3.44 ± 0.31
- self-splicing fitness (ln) (37 °C): -1.4 ± 0.21

Sequence: AUCGAGCAAUAUUACGGAUC
- self-splicing fitness (ln) (30 °C): -3.66 ± 0.41
- self-splicing fitness (ln) (37 °C): -1.38 ± 0.32

Sequence: CUAAAGCAAUAUUACGCUCG
- self-splicing fitness (ln) (30 °C): -0.715 ± 0.12
- self-splicing fitness (ln) (37 °C): -0.626 ± 0.15

Sequence: UCUCAGCAAUAUUACGUUAG
- self-splicing fitness (ln) (30 °C): -3.98 ± 0.4
- self-splicing fitness (ln) (37 °C): -2.34 ± 0.27

Sequence: UUUGAGCAAUAUUACGAGCG
- self-splicing fitness (ln) (37 °C): -1.88 ± 0.35

Sequence: GCCCAGCAAUAUUACGUUUU
- self-splicing fitness (ln) (30 °C): -1.53 ± 0.064
- self-splicing fitness (ln) (37 °C): -0.591 ± 0.09

Sequence: AACAAGCAAUAUUACGCCCG
- self-splicing fitness (ln) (30 °C): -0.206 ± 0.11
- self-splicing fitness (ln) (37 °C): -0.347 ± 0.17

Sequence: GCAGAGCAAUAUUACGUGGU
- self-splicing fitness (ln) (30 °C): -3.94 ± 0.17
- self-splicing fitness (ln) (37 °C): -2.27 ± 0.18

Sequence: UCCAAGCAAUAUUACGUGAG
- self-splicing fitness (ln) (30 °C): -2.37 ± 0.098
- self-splicing fitness (ln) (37 °C): -0.996 ± 0.097

Sequence: UCAAAGCAAUAUUACGAAGA
- self-splicing fitness (ln) (30 °C): -2.21 ± 0.18
- self-splicing fitness (ln) (37 °C): -1.02 ± 0.13

Sequence: AGGGAGCAAUAUUACGACCG
- self-splicing fitness (ln) (30 °C): -1.92 ± 0.35
- self-splicing fitness (ln) (37 °C): -0.586 ± 0.33

Sequence: GCCAAGCAAUAUUACGCUGG
- self-splicing fitness (ln) (30 °C): -4.4 ± 0.28
- self-splicing fitness (ln) (37 °C): -2.37 ± 0.18

Sequence: GGGCAGCAAUAUUACGAUUC
- self-splicing fitness (ln) (30 °C): -0.524 ± 0.17
- self-splicing fitness (ln) (37 °C): 0.155 ± 0.15

Sequence: AUGGAGCAAUAUUACGCGUU
- self-splicing fitness (ln) (30 °C): -3.93 ± 0.21
- self-splicing fitness (ln) (37 °C): -3.05 ± 0.24

Sequence: CGGAAGCAAUAUUACGAAGU
- self-splicing fitness (ln) (37 °C): -2.81 ± 0.44

Sequence: AACCAGCAAUAUUACGGUUA
- self-splicing fitness (ln) (30 °C): -2.14 ± 0.099
- self-splicing fitness (ln) (37 °C): -0.269 ± 0.084

Sequence: UCUCAGCAAUAUUACGCACG
- self-splicing fitness (ln) (30 °C): -2.2 ± 0.2
- self-splicing fitness (ln) (37 °C): -2.06 ± 0.28

Sequence: CAAUAGCAAUAUUACGGUGC
- self-splicing fitness (ln) (30 °C): -3.75 ± 0.23
- self-splicing fitness (ln) (37 °C): -3.67 ± 0.29

Sequence: ACGAAGCAAUAUUACGUCAC
- self-splicing fitness (ln) (30 °C): -4.98 ± 0.39
- self-splicing fitness (ln) (37 °C): -2.43 ± 0.16

Sequence: GGGAAGCAAUAUUACGUCGC
- self-splicing fitness (ln) (30 °C): -1.83 ± 0.16
- self-splicing fitness (ln) (37 °C): -0.302 ± 0.17

Sequence: CUGUAGCAAUAUUACGAAUG
- self-splicing fitness (ln) (30 °C): -1.12 ± 0.081
- self-splicing fitness (ln) (37 °C): 0.429 ± 0.11

Sequence: AAGUAGCAAUAUUACGUUCG
- self-splicing fitness (ln) (30 °C): -1.35 ± 0.13
- self-splicing fitness (ln) (37 °C): -0.681 ± 0.17

Sequence: UAACAGCAAUAUUACGAAUG
- self-splicing fitness (ln) (30 °C): -0.844 ± 0.085
- self-splicing fitness (ln) (37 °C): -0.788 ± 0.098
